The values below come from US20260008852A1 (CRYSTAL BIOSCIENCE, published 2026).

Sequences and labels used below:
B1: 40511p1.1.G1 IgG (antibody, V domains shown)
VH: DVQLVESGGGVVRPGESLRLSCAASGFTFSSYAESWVRQAPGEGLEWVSIISGSGGNTFYADSVKGRFTISRDNSKNTLYLQMNSLRAEDTAVYYCARFAYGFFDYWGLGTLVTVSS
VL: EIVLTQSPGTLSVSPGEGATLSCRASQTVGSKLAWYQQKPGQPPSLLIYDASTRATGIPDRFSGSGSGTDFTLTISSLQSEDFAVYYCQQYRNWPPLTFGGGTKVEIK
B2: 40511p1.2.G10 IgG (antibody, V domains shown)
VH: DVQLVESGGGVVRPGESLRLSCAASGFTFSNYAMNWVRQAPGEGLEWVSRINYKGYNITYYADSVKGRFTISRDNSKNTLYLQMNSLRAEDTAVYYCAKSGSNSNNFFDYWGLGTLVTVSS
VL: B1 VL with V13L, G18R, P43A, S45R, D50G, G57D, D70E, R92I, T98S
B3: 40511p1.2.A12 IgG (antibody, V domains shown)
VH: B1 VH
VL: B1 VL with G18R
B4: 40511p1.2.A4 IgG (antibody, V domains shown)
VH: B1 VH
VL: B1 VL with G18R, P43A, S45R, G57D
B5: 40633p1.1.D11 IgG (antibody, V domains shown)
VH: EVQLLESGGGLVQPGGSLRLSCAASGFTFRSYAMSWVRQAPGKGLEWVAYIGSSGGTTYYADSVKGRFTISRDNSKNTLYLQMNSLRAEDTAVYYCVKESYYYMDVWGQGTTVTVSS
VL: QSVLTQPPSASGTPGQRVTISCSATISNIDINRVSWYQQLPGTAPKLLIFNSQRPSGVPDRFSGSKSGTSASLAISGLQSEDEADYYCATWDDSLNSWVFGGGTKLTVL
B6: 40511p1.1.G3 IgG (antibody, V domains shown)
VH: DVQLVESGGGVVRPGESLTLSCAASGFTINSYAVSWVRQAPGEGLEWVSGISGSGVRYYADSVKGRFTISRDDSNNTLYLQMNSLRAEDTAVYYCARSNKVTWNNFFDYWGLGTLVTVSS
VL: EVVLTQSPGTLTLSPGERATLSCRASRSILTSLAWYQQKPGQAPRLLIYNTVTRATGIPARFSGSGSGTEFTLTINSLQSEDFAVYYCQQYYDWPPLTFGGGTKVEIK
B7: 40579p1.C2 IgG (antibody, V domains shown)
VH: EVQLLESGGDLVQPGGSLRLSCAASGFNFSSYWMSWVRQAPGKGLEWVSGISISYGGNAYYADSVKGRFTVSRDNSKNTLYLQMNSLRAEDTAVYYCGRDRSPYQYRSMDVWGQGTTVTVSS
VL: EIVLTQSPATLSVSPGERATFSCRASQTIGNKLAWYQQKPGQAPRLLIFSASTRATDIPDRFSGSGSGTDFTLTISSLQSEDFAVYYCQQYNNWPPLTFGGGTKVEIK
B8: 40579p1.D8 IgG (antibody, V domains shown)
VH: B7 VH with D10G, N28T, S31D, W33Y, G50S, N58T, A59T, V71I, G98A, Y106C
VL: EIVLTQSPGTLSLSPGERATLSCRASQSIRSDLAWYQQKPGQAPRLLIYNTVTRATGVPDRFSGSGSGTEFTLTISSLQSEDFAVYYCQQYNSWPPLTFGGGTKVEIK
B9: 40579p1.D1 IgG (antibody, V domains shown)
VH: B7 VH with D10G, N28T, S31D, W33Y, G50S, N58T, A59T, V71I, G98A, Y106C
VL: B8 VL with T10S, I29V, R30N, N50A, T51A, V52S, T53S, V58I, D60A, S93N
B10: 40579p1.F7 IgG (antibody, V domains shown)
VH: B7 VH with D10G, N28T, S31D, W33Y
VL: EIVLTQSPGTLSLSPGERATLTCRASQSVGDFLAWYQQKPGQAPRLLIYGASTRAAGIPARFRGSGSGTDFTLTISSLQSEDFAVYYCQQYKNWPPLTFGGGTKVEIK
B11: 40579p1.H7 IgG (antibody, V domains shown)
VH: B7 VH
VL: B8 VL with N50G, T51A, V52S, T53S, V58I, D60A, S93N
B12: 40579p1.G1 IgG (antibody, V domains shown)
VH: B7 VH with D10G
VL: B8 VL with N50G, T51A, V52S, T53S, V58I, D60A, S93N
B13: 40633p1.2.E1 IgG (antibody, V domains shown)
VH: EVQLLESGRGLVQPGGSLRLSCAASGFTVSYYGMSWVRQAPGKGLEWVSVIKQDGSEEYYADSVKGRFTISRDNSKNTLYLQMNSLRAEDTAVYYCARHWNDYSNGMNVWGQGTTVTVSS
VL: QSVLTQPPSASGTPGQRVTISCSGSTSNVGDRYVYWYQQLPGTAPKLLIYLDDQRPSGVPDRFSGSKSGTSASLAISGLQSEDEADYYCASWDASLNGWVFGGGTKLTVL
B14: 40633p1.2.F3 IgG (antibody, V domains shown)
VH: B13 VH with R9G
VL: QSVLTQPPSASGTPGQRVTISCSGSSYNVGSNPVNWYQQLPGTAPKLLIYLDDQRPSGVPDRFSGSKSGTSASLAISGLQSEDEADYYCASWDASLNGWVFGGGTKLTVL
B15: 40633p1.1.B3 IgG (antibody, V domains shown)
VH: B13 VH with R9G, V50A, E58K, G106A
VL: B13 VL with V29I, D31R, R32E, Y33S, L51T, D52I, A90G, S91T, A94D, G98A
B16: 40633p1.1.A7 IgG (antibody, V domains shown)
VH: B13 VH with R9G, V50A, E58K, G106A
VL: B13 VL with V29I, D31R, R32E, Y33S, L51T, D52I, D86V
B17: 40633p1.1.E3 IgG (antibody, V domains shown)
VH: B13 VH with R9G, V50A, E58K, G106A
VL: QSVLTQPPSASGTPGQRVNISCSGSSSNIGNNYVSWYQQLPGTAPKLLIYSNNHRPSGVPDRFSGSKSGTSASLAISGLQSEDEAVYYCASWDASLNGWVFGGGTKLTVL
B18: 40633p1.2.E5 IgG (antibody, V domains shown)
VH: EVQLLESGGGLVQPGGSLRLSCAASGFTFDGYGMSWVRQAPGKGLEWVSAISGNSGSIYYADSVKGRFTISRDNSKNTLYLQMNSLRAEDTAAYYCAKEKWKHFIYYGMDVWGQGTTVTVSS
VL: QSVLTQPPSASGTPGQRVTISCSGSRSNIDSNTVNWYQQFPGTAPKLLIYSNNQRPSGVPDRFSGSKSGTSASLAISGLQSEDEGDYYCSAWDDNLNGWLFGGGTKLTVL
B19: 40511p1.1.A1 IgG (antibody, V domains shown)
VH: B2 VH
VL: EIVLTQSPGTLSVSPGERATLSCRASQSVNSKLAWYQQRPGQAPRLLIYDASSRATGIPDRFSGSGSGTDFTLTISRLEPEDFAVYYCQQYKNWPPLTFGGGTKVEIK
B20: 40511p1.1.H5 IgG (antibody, V domains shown)
VH: B2 VH
VL: B8 VL with N50G, T51A, V52A, T53S, V58I, D60A, E81G
B21: 40633p1.1.C11 IgG (antibody, V domains shown)
VH: EVQLLESGGGLVQPGGSLRLSCAASGFTFSSYWMSWVRQAPGKGLEWVAGINRNGGTTYYADSVKGRFTISRDNSKNTLYLQMNSLRAEDTAVYYCARWNDYDIMDVWGQGTTVTVSS
VL: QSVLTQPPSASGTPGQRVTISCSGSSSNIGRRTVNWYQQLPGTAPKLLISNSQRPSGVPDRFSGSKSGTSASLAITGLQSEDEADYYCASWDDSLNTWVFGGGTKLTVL
B22: 40633p1.1.E4 IgG (antibody, V domains shown)
VH: B21 VH with A49S, N52S, R53S, N54S, G56S, T57A
VL: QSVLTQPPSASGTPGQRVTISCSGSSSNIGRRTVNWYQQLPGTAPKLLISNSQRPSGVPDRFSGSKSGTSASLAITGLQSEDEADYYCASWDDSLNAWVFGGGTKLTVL

Numbering of substitutions follows the chain as printed.

This test concerns the target T1, B7-H3 on CHO-K1 cells stably transfected with B7-H3 (GenScript #M00536) (UniProt Q5ZPR3 29-534, limits assumed).
T1 sequence (looked up): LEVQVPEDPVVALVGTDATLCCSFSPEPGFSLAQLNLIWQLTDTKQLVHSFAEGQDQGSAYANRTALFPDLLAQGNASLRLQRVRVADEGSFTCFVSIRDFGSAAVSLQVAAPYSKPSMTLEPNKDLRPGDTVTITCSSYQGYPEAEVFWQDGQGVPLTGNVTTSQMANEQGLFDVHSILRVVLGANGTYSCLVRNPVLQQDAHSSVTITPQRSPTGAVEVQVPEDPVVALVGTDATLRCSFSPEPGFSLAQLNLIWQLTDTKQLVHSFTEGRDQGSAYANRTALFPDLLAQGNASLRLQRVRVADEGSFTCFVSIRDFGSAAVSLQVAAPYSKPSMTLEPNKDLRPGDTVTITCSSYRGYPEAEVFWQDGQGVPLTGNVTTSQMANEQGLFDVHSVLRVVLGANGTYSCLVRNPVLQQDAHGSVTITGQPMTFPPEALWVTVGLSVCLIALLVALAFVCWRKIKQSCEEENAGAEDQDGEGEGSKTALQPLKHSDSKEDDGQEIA
As to the kind of experiment: cell-based or functional assay.
B1: the “ADCC reporter assay, EC50 Value, CHOK1/B7-H3 cells” value (“ADCC reporter assay, EC50 Value” for short) is 41.6 ng/mL and the “ADCC reporter assay, Max RLU, CHOK1/B7-H3 cells” value (from here on “ADCC reporter assay, Max RLU”) was 679000 RLU.
For B2 the same measures were approximately 10.2 ng/mL and 893000 RLU.
For B3 the same measures were 35.2 ng/mL and 598000 RLU.
Regarding B4, the “ADCC reporter assay, EC50 Value” value was 31.8 ng/mL and the “ADCC reporter assay, Max RLU” value is 548000 RLU.
The corresponding values for B5 are 11.9 ng/mL and 656000 RLU.
In the case of B6, the “ADCC reporter assay, EC50 Value” value was 14.1 ng/mL and the “ADCC reporter assay, Max RLU” value stood at 723000 RLU.
For B7 the same measures were 11.6 ng/mL and 843000 RLU.
Consider B8, for which the “ADCC reporter assay, EC50 Value” value is 75 ng/mL and the “ADCC reporter assay, Max RLU” value worked out at 728000 RLU.
Regarding B9, the “ADCC reporter assay, EC50 Value” value came to 274 ng/mL and the “ADCC reporter assay, Max RLU” value worked out at 744000 RLU.
For B10 the same measures were 12.4 ng/mL and 641000 RLU.
The corresponding values for B11 are 12.6 ng/mL and 833000 RLU.
As to B12, the “ADCC reporter assay, EC50 Value” value stood at 11.5 ng/mL and the “ADCC reporter assay, Max RLU” value came to 806000 RLU.
The corresponding values for B13 are 31 ng/mL and 725000 RLU.
Regarding B14, the “ADCC reporter assay, EC50 Value” value amounted to 30 ng/mL and the “ADCC reporter assay, Max RLU” value came out at 700000 RLU.
Regarding B15, the “ADCC reporter assay, EC50 Value” value amounted to 22.8 ng/mL and the “ADCC reporter assay, Max RLU” value was 680000 RLU.
For B16 the same measures were approximately 12.5 ng/mL and 634000 RLU.
The corresponding values for B17 are 135 ng/mL and 625000 RLU.
For B18 the same measures were 26.8 ng/mL and 669000 RLU.
Turning to B19, the “ADCC reporter assay, EC50 Value” value came to 12.4 ng/mL and the “ADCC reporter assay, Max RLU” value was 820000 RLU.
For B20 the same measures were 16.4 ng/mL and 762000 RLU.
Regarding B21, the “ADCC reporter assay, EC50 Value” value came out at 17.3 ng/mL and the “ADCC reporter assay, Max RLU” value came out at 719000 RLU.
For B22 the same measures were 19.4 ng/mL and 676000 RLU.
